According to PMC5123071 (2016):

Target: biotinylated Apaf-1 CARD-LZ-Avi (UniProt O14727 1-137, biotin on the AviTag (BirA))
Assay: SPR

Sequence of biotinylated Apaf-1 CARD-LZ-Avi (O14727 other isoform, or with tags, fused parts or gaps): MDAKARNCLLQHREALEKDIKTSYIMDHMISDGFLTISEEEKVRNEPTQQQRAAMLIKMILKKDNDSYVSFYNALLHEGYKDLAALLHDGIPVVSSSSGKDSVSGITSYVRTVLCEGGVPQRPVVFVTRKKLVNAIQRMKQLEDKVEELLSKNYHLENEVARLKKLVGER

Kd: 125 nM
B1: processed C9/8 chimera (enzyme)
chain 1: MDEADRRLLRRCRLRLVEELQVDQLWDALLSRELFRPHMIEDIQRAGSGSRRDQARQLIIDLETRGSQALPLFISCLEDTGQDMLASFLRTNRQAAKLSKPTLENLTPVVLRPEIRKPEVLRPETPRPVDIGSGGFGSESQTLDKVYQMKSKPRGYCLIINNHNFAKAREKVPKLHSIRDRNGTHLDAGALTTTFEELHFEIKPHDDCTVEQIYEILKIYQLMDHSNMDCFICCILSHGDKGIIYGTDGQEAPIYELTSQFTGLKCPSLAGKPKVFFIQACQGDNYQKGIPVETD
chain 2: LSSPQTRYIPDEADFLLGMATVNNCVSYRNPAEGTWYIQSLCQSLRERCPRGDDILTILTEVNYEVSNKDDKKNMGKQMPQPTFTLRKKLVFPSD
